The values below come from patent publication US20180031566A1 (VENTANA MEDICAL SYSTEMS, published 2018).

The target in test [1] is T1, recombinant protein for uPAR-like domain 2 of C4.4a (amino acids 139-224) (human, UniProt O95274 139-224).
T1 construct: Recombinant domain used in ELISA
T1 sequence: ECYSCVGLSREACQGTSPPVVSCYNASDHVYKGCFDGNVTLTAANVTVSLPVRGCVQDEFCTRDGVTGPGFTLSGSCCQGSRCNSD
The experiment in a line: ELISA with recombinant domain proteins.

In test [2] the target is T2, recombinant protein for uPAR-Like domain 1 of C4.4a (amino acids 31-116) (human, UniProt O95274 31-116).
T2 construct: Recombinant domain used in ELISA
T2 sequence: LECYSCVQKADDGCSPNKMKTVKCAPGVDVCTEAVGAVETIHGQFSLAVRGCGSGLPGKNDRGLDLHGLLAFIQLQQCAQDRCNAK
The experiment in a line: ELISA with recombinant domain proteins.

B1: anti-C4.4a antibody clone S42H9L5 (antibody, V domains shown)
VH: QSLEESGGRLVKPDETLTLTCTVSGFSLNTVAISWVRQAPGKGLEWIGFIHPTVNTYYARWAKGRFTISRASSTTVDLKVTSLTFEDAATYFCVRGNAHYDIWGPGTLVTVSL
VL: AFELTQTPSLVSAAVGGTVTISCQSSQSVYSDNYLAWYQQKPGQRPKLLIYKASDLASGVPSRFKGSGSGTEFTLTISDLECADAATYYCQSYYGVSSDSNAFGGGTEVVVK
notes: Rabbit monoclonal antibody; also called SP246 (a S42H9L5 clone)
With B1, the binding result in test [1] is “binds”.

B2: anti-C4.4a antibody clone S20H1L1 (antibody, V domains shown)
VH: QEQLEESGGGLVKPGGTLTLTCTASGFSLISTYYICWVRQAPGKGLEWIGCIPLSHSVSWYANWVNGRFSISKTSSTTVTLKMASLTDADTATYFCGRGSSGWGVDSKLWGPGTLVTVSS
VL: AVLTQTPSPVSASVGGTVTINCQSSPSVASGYLSWFQQKPGQPPKLLIYRASTLVSGVPSRFKGSGSGTHFTLTISDVQCDDAATYYCAGAYSSRSDTTFGGGTEVVVK
notes: Rabbit monoclonal antibody; also called SP245 (a S20H1L1 clone)
As for B2, the binding result in test [2] is given as “binds”.
